The Human Domainome abundance scans (Beltran et al. 2025)
± gives the uncertainty stated by the source.

B1: KAT8 regulatory NSL complex subunit 2, residues 28 to 91; numbered along this chain, Q9H9L4 (parent)
chain: CAFTHRPCSHPRLEGQEFCIKHILEDKNAPFKQCSYISTKNGKRCPNAAPKPEKKDGVSFCAEH

Variants of: B1
Experiment: abundance fitness (aPCA) (normalised: wild type 0, dead -1); higher = more abundant; growth selection in yeast, the domain comes from the species named
Conditions: Homo sapiens

Variant	abundance fitness
CAFTHRPCSHPRLEEQEFCIKHILEDKNAPFKQCSYISTKNGKRCPNAAPKPEKKDGVSFCAEH [G15E]	-0.219 ± 0.073
CAFTHRPCSHPRLEPQEFCIKHILEDKNAPFKQCSYISTKNGKRCPNAAPKPEKKDGVSFCAEH [G15P]	-0.543 ± 0.04
CAFTHRPCSHPRLENQEFCIKHILEDKNAPFKQCSYISTKNGKRCPNAAPKPEKKDGVSFCAEH [G15N]	-0.134 ± 0.12
CAFTHRPCSHPRLEVQEFCIKHILEDKNAPFKQCSYISTKNGKRCPNAAPKPEKKDGVSFCAEH [G15V]	-0.972 ± 0.076
CAFTHRPCSHPRLERQEFCIKHILEDKNAPFKQCSYISTKNGKRCPNAAPKPEKKDGVSFCAEH [G15R]	-0.228 ± 0.056
CAFTHRPCSHPRLEYQEFCIKHILEDKNAPFKQCSYISTKNGKRCPNAAPKPEKKDGVSFCAEH [G15Y]	-0.706 ± 0.3
CAFTHRPCSHPRLETQEFCIKHILEDKNAPFKQCSYISTKNGKRCPNAAPKPEKKDGVSFCAEH [G15T]	-0.428 ± 0.089
CAFTHRPCSHPRLEDQEFCIKHILEDKNAPFKQCSYISTKNGKRCPNAAPKPEKKDGVSFCAEH [G15D]	-0.127 ± 0.14
CAFTHRPCSHPRLECQEFCIKHILEDKNAPFKQCSYISTKNGKRCPNAAPKPEKKDGVSFCAEH [G15C]	-0.403 ± 0.14
CAFTHRPCSHPRLEAQEFCIKHILEDKNAPFKQCSYISTKNGKRCPNAAPKPEKKDGVSFCAEH [G15A]	-0.284 ± 0.064
CAFTHRPCSHPRLEFQEFCIKHILEDKNAPFKQCSYISTKNGKRCPNAAPKPEKKDGVSFCAEH [G15F]	-0.406 ± 0.1
CAFTHRPCSHPRLEWQEFCIKHILEDKNAPFKQCSYISTKNGKRCPNAAPKPEKKDGVSFCAEH [G15W]	-0.592 ± 0.091
CAFTHRPCSHPRLEMQEFCIKHILEDKNAPFKQCSYISTKNGKRCPNAAPKPEKKDGVSFCAEH [G15M]	-0.199 ± 0.07
CAFTHRPCSHPRLEQQEFCIKHILEDKNAPFKQCSYISTKNGKRCPNAAPKPEKKDGVSFCAEH [G15Q]	-0.134 ± 0.11
CAFTHRPCSHPRLEHQEFCIKHILEDKNAPFKQCSYISTKNGKRCPNAAPKPEKKDGVSFCAEH [G15H]	-0.263 ± 0.11
CAFTHRPCSHPRVEGQEFCIKHILEDKNAPFKQCSYISTKNGKRCPNAAPKPEKKDGVSFCAEH [L13V]	-0.127 ± 0.084
CAFTHRPCSHPRWEGQEFCIKHILEDKNAPFKQCSYISTKNGKRCPNAAPKPEKKDGVSFCAEH [L13W]	-0.315 ± 0.12
CAFTHRPCSHPRKEGQEFCIKHILEDKNAPFKQCSYISTKNGKRCPNAAPKPEKKDGVSFCAEH [L13K]	-0.24 ± 0.18
CAFTHRPCSHPRSEGQEFCIKHILEDKNAPFKQCSYISTKNGKRCPNAAPKPEKKDGVSFCAEH [L13S]	-0.331 ± 0.067
CAFTHRPCSHPRPEGQEFCIKHILEDKNAPFKQCSYISTKNGKRCPNAAPKPEKKDGVSFCAEH [L13P]	-0.86 ± 0.093
CAFTHRPCSHPRIEGQEFCIKHILEDKNAPFKQCSYISTKNGKRCPNAAPKPEKKDGVSFCAEH [L13I]	-0.145 ± 0.13

Variant	abundance fitness
CAFTHRPCSHPRHEGQEFCIKHILEDKNAPFKQCSYISTKNGKRCPNAAPKPEKKDGVSFCAEH [L13H]	-0.215 ± 0.088
CAFTHRPCSHPRCEGQEFCIKHILEDKNAPFKQCSYISTKNGKRCPNAAPKPEKKDGVSFCAEH [L13C]	-0.365 ± 0.11
CAFTHRPCSHPRFEGQEFCIKHILEDKNAPFKQCSYISTKNGKRCPNAAPKPEKKDGVSFCAEH [L13F]	-0.324 ± 0.075
CAFTHRPCSHPRAEGQEFCIKHILEDKNAPFKQCSYISTKNGKRCPNAAPKPEKKDGVSFCAEH [L13A]	-0.187 ± 0.057
CAFTHRPCSHPRTEGQEFCIKHILEDKNAPFKQCSYISTKNGKRCPNAAPKPEKKDGVSFCAEH [L13T]	-0.308 ± 0.082
CAFTHRPCSHPRREGQEFCIKHILEDKNAPFKQCSYISTKNGKRCPNAAPKPEKKDGVSFCAEH [L13R]	-0.465 ± 0.056
CAFTHRPCSHPRMEGQEFCIKHILEDKNAPFKQCSYISTKNGKRCPNAAPKPEKKDGVSFCAEH [L13M]	-0.048 ± 0.11
CAFTHRPCSHPRGEGQEFCIKHILEDKNAPFKQCSYISTKNGKRCPNAAPKPEKKDGVSFCAEH [L13G]	-0.423 ± 0.072
CAFTHRPCSHPREEGQEFCIKHILEDKNAPFKQCSYISTKNGKRCPNAAPKPEKKDGVSFCAEH [L13E]	-0.334 ± 0.12
CAFTHRPCSHPRNEGQEFCIKHILEDKNAPFKQCSYISTKNGKRCPNAAPKPEKKDGVSFCAEH [L13N]	-0.53 ± 0.15
CAFTHRPCSHPRQEGQEFCIKHILEDKNAPFKQCSYISTKNGKRCPNAAPKPEKKDGVSFCAEH [L13Q]	-0.176 ± 0.13
CAFTHRPCSHPRDEGQEFCIKHILEDKNAPFKQCSYISTKNGKRCPNAAPKPEKKDGVSFCAEH [L13D]	-0.501 ± 0.086
CAFTHRPCSHPRYEGQEFCIKHILEDKNAPFKQCSYISTKNGKRCPNAAPKPEKKDGVSFCAEH [L13Y]	-0.277 ± 0.1
CAFTHRPCSHPRLEGDEFCIKHILEDKNAPFKQCSYISTKNGKRCPNAAPKPEKKDGVSFCAEH [Q16D]	-0.408 ± 0.2
CAFTHRPCSHPRLEGREFCIKHILEDKNAPFKQCSYISTKNGKRCPNAAPKPEKKDGVSFCAEH [Q16R]	-0.089 ± 0.044
CAFTHRPCSHPRLEGNEFCIKHILEDKNAPFKQCSYISTKNGKRCPNAAPKPEKKDGVSFCAEH [Q16N]	-0.25 ± 0.086
CAFTHRPCSHPRLEGEEFCIKHILEDKNAPFKQCSYISTKNGKRCPNAAPKPEKKDGVSFCAEH [Q16E]	-0.261 ± 0.078
CAFTHRPCSHPRLEGVEFCIKHILEDKNAPFKQCSYISTKNGKRCPNAAPKPEKKDGVSFCAEH [Q16V]	-0.38 ± 0.068
CAFTHRPCSHPRLEGPEFCIKHILEDKNAPFKQCSYISTKNGKRCPNAAPKPEKKDGVSFCAEH [Q16P]	-1.11 ± 0.11
CAFTHRPCSHPRLEGIEFCIKHILEDKNAPFKQCSYISTKNGKRCPNAAPKPEKKDGVSFCAEH [Q16I]	-0.497 ± 0.09
CAFTHRPCSHPRLEGKEFCIKHILEDKNAPFKQCSYISTKNGKRCPNAAPKPEKKDGVSFCAEH [Q16K]	-0.143 ± 0.1
